Data reported in patent US20240392028A1.

Target: highest binding amyloid (in vitro)
Experiment: calculated from in vitro binding of the antibody to amyloid; method not described

Michaelis-Menton EC 90 (calculated): 36.5 µg/mL
B1: CAEL-101 antibody having a heavy chain variable domain (VH) as set forth in SEQ ID NO:1 and a light chain variable domain (VL) as set forth in SEQ ID NO:2 (antibody, human IgG1, V domains shown)
VH: QVQLKESGPGLVAPSQSLSITCTVSGFSLSSYGVSWVRQPPGKGLEWLGVIWGDGSTNYHPNLMSRLSISKDISKSQVLFKLNSLQTDDTATYYCVTLDYWGQGTSVTVSS
VL: DVVMTQTPLSLPVSLGDQASISCRSSQSLVHRNGNTYLHWYLQKPGQSPKLLIYKVSNRFSGVPDRFSGSGSGTDFTLKISRVEAEDLGLYFCFQTTYVPNTFGGGTKLEIK
